# In US7169559B2, “LDL receptor-related proteins 1 and 2 and treatment of bone or cartilage conditions” (Fonterra Corporate Research and Development Ltd., priority 2002, dated 2007):
# Columns and labels:
# mature osteoclasts = experiment: bone-resorbing activity of mature osteoclasts; type: cell-based
# SaOS-2 cells = experiment: proliferation in SaOS-2 cells; type: cell-based, human; details: only LRP-1 is expressed in SaOS-2 cells
# Experimental: (§1) The human osteoblast-like osteosarcoma cell line SaOS-2 was maintained in DMEM (GIBCO 12100-046) supplemented with 2.2 g/L NaHCO3, 10% FBS, and 10 ml/L penicillin-streptomycin (GIBCO 15140-122). Cells were plated in 75 cm^2 flasks and when confluent used for total RNA isolation or proliferation assays.
# chondrocytes = experiment: chondrocyte mitogenesis; type: cell-based
# [1] = test system: p42/44 MAP kinase signaling pathway; experiment: p42/44 MAP kinase signaling / phosphorylation in osteoblastic cells; type: cell-based
# osteoblast = osteoblast differentiation / mineralized bone nodules in long-term osteoblast cultures; type: cell-based
# osteoclastogenesis = experiment: murine bone marrow culture assay of osteoclastogenesis; type: cell-based
# LRP-1-null fibroblasts = experiment: proliferation in LRP-1-null versus LRP-1+/+ fibroblasts; type: cell-based
# primary rat osteoblasts = experiment: apoptosis induced by serum withdrawal; type: cell-based
# Experimental: (§2) Osteoblasts were isolated from 20-day old fetal rat calvariae as previously described (Cornish et al. (1999) Amer. J. Physiol-Endocrinol. Metab. 277:E779–E783). Briefly, calvariae were excised and the frontal and parietal bones, free of suture and periosteal tissue, were collected. After washing, the calvariae were treated twice with 3 mL of 1 mg/mL collagenase for 7 minutes at 37° C. After discarding the supernatants from these two digestions, the calvariae were treated a further twice with 3 mL of 2 mg/mL collagenase (30 mins, 37° C.). The supernatants of the latter two digestions were pooled, centrifuged, and the cells washed. Cells were grown to confluence and then subcultured into 24 well plates. Cells were growth arrested in minimum essential medium (MEM)/0.1% bovine serum albumin for 24 h before harvest.
# LRP-2/megalin = LRP-2/megalin (Homo sapiens, UniProt P98164); experiment: binding of lactoferrin to LRP-2
# Chain of LRP-2/megalin (P98164 26-4655): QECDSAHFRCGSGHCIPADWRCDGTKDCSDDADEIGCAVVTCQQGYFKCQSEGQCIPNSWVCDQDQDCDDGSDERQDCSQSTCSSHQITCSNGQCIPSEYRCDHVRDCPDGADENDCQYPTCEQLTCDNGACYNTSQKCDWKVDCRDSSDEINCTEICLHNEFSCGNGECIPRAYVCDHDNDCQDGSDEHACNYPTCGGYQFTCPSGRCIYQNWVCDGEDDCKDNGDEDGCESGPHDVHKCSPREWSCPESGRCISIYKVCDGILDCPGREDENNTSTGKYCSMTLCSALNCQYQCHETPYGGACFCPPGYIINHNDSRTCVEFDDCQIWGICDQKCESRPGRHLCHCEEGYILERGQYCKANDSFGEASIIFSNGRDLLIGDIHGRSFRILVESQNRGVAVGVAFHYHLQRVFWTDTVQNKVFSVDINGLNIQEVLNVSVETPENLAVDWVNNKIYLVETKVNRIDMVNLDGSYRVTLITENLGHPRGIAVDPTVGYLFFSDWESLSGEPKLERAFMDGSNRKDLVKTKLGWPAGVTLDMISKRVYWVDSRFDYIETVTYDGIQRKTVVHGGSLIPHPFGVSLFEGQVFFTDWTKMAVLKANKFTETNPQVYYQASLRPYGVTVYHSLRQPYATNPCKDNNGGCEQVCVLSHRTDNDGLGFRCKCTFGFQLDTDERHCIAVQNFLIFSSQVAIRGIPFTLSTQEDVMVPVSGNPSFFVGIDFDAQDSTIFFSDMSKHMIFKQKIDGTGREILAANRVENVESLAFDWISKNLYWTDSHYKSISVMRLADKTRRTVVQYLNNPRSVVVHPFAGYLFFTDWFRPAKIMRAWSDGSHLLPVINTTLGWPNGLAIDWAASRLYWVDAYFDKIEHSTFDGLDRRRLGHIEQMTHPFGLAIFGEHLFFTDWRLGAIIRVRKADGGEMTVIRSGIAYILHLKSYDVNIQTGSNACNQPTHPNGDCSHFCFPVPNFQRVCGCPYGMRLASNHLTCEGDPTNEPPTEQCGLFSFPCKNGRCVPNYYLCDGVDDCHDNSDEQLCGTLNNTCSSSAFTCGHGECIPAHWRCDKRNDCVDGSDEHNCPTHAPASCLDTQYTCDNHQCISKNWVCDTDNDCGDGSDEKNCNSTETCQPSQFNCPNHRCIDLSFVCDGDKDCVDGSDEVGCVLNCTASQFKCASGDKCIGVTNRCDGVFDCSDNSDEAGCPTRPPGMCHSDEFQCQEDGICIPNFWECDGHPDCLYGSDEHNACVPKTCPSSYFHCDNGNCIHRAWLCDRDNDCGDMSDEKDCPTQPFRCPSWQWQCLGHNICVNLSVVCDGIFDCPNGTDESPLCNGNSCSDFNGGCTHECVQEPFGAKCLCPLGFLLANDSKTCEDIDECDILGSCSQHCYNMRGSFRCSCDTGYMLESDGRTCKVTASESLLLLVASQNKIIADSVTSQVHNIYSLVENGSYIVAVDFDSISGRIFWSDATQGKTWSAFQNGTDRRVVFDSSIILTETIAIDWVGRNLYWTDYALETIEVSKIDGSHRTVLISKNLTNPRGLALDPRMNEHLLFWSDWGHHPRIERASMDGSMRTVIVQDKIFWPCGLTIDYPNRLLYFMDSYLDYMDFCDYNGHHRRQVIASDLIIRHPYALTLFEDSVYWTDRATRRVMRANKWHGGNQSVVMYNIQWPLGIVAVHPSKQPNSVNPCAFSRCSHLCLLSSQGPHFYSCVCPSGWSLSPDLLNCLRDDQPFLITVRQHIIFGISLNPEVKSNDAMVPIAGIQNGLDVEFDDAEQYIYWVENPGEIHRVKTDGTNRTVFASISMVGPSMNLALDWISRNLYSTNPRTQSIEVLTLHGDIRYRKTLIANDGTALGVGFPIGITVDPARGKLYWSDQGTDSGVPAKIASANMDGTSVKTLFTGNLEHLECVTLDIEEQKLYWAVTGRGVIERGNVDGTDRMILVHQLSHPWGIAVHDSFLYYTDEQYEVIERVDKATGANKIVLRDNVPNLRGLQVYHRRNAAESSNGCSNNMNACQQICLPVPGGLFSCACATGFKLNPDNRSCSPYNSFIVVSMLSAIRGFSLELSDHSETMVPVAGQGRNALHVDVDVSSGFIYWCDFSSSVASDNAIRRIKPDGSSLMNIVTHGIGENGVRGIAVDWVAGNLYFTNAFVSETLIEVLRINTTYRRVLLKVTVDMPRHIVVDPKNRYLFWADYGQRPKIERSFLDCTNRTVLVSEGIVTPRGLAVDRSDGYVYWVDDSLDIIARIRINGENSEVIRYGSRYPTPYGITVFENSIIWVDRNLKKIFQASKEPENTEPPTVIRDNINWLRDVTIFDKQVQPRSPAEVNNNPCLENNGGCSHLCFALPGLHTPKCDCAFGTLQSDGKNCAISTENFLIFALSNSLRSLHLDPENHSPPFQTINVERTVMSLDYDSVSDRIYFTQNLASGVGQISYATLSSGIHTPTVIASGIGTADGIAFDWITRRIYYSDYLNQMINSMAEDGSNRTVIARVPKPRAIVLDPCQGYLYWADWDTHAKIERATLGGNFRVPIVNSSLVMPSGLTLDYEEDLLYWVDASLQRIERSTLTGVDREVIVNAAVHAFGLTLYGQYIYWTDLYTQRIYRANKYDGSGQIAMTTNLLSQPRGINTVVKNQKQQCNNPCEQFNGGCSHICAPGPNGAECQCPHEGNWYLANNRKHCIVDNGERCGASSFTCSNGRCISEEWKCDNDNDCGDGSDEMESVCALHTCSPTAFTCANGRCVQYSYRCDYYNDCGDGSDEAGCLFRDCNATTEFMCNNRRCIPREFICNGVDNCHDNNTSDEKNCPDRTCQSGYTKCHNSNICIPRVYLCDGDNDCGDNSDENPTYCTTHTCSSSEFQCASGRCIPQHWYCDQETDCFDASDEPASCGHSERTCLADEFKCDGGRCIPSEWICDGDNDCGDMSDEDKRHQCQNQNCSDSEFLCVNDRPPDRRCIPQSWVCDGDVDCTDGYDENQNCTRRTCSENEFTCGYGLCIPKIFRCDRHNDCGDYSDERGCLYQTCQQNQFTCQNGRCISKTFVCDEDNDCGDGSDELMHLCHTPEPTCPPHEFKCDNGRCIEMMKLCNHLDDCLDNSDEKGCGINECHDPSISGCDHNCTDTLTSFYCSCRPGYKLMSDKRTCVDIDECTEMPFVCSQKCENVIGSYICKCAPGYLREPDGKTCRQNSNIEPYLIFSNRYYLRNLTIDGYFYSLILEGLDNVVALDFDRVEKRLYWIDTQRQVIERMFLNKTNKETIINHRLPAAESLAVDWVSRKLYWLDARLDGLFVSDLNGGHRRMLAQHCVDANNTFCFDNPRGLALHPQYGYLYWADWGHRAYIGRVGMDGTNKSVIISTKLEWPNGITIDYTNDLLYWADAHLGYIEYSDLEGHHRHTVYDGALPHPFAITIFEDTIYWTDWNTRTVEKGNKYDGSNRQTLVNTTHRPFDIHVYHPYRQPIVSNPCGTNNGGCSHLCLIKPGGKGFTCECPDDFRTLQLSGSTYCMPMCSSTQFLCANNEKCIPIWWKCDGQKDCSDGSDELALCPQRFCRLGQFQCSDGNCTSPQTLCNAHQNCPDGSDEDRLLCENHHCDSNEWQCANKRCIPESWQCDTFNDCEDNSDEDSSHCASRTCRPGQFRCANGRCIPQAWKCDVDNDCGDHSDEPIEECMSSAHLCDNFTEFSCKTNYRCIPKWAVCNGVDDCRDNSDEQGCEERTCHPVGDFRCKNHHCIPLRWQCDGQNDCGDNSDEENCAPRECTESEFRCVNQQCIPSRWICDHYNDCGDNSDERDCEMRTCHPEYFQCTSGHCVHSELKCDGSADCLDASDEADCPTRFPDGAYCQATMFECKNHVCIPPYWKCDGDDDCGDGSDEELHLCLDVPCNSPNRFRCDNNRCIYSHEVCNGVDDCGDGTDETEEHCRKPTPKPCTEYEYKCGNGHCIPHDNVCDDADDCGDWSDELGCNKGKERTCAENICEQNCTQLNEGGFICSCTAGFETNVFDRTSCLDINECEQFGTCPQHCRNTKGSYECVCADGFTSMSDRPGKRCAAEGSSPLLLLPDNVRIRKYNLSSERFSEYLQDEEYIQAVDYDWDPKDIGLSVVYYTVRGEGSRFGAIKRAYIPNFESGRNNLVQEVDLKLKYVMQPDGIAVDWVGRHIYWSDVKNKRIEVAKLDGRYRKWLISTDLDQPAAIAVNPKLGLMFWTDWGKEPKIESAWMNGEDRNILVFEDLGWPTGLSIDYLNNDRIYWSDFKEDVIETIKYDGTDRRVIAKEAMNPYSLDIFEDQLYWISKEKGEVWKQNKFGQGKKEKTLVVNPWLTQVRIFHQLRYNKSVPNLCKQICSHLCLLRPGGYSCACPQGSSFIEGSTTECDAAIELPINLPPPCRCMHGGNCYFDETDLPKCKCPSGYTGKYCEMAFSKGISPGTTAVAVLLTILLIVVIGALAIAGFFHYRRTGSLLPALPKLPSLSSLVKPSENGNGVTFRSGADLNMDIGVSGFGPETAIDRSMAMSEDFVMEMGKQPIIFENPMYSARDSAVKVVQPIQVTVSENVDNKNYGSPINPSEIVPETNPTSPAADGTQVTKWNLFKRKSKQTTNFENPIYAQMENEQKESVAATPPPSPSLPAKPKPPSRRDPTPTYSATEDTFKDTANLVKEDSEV
# LRP-1 = LRP-1 (Homo sapiens, UniProt Q07954); experiment: binding of lactoferrin to LRP-1
# [2] = test system: primary rat osteoblastic cells; experiment: endocytosis of lactoferrin observed under confocal microscopy; type: cell-based
# Experimental: as §2
# [3] = unilateral local hemicalvarial injection in adult mice; type: in vivo
# [4] = test system: cultured osteoblastic cells; experiment: osteoblast proliferation (mitogenic/osteogenic effect); type: cell-based, rat, mouse, and human
# Experimental: as §2, §1
Molecule,bone-resorbing activity of mature osteoclasts (mature osteoclasts),proliferation in SaOS-2 cells (SaOS-2 cells),mitogenic to chondrocytes (chondrocytes),activation of p42/44 MAP kinase signaling pathway ([1]; osteoblastic cells),osteoblast differentiation (osteoblast),number of mineralized bone nodules (osteoblast; long-term osteoblast cultures),osteoclastogenesis (osteoclastogenesis),proliferation in LRP-1-null fibroblasts compared with LRP-1+/+ cells (LRP-1-null fibroblasts),apoptosis induced by serum withdrawal (primary rat osteoblasts),binding to LRP-2/megalin (LRP-2/megalin),binding to LRP-1 (LRP-1),endocytosis by primary rat osteoblastic cells [2],bone area [3],indices of bone formation [3],"proliferation of cultured osteoblastic cells ([4]; cells of rat, mouse, and human origin)",effect on lactoferrin-induced MAP kinase phosphorylation ([1]; in the presence of lactoferrin),effect on endocytosis of lactoferrin ([2]; primary rat osteoblastic cells),effect on lactoferrin-induced osteoblast proliferation ([4]; in the presence of lactoferrin)
"Lactoferrin: an 80 kDa glycoprotein present in milk and epithelial secretions; osteoblast growth factor present in fractionated bovine milk (protein, UniProt P24627 20-708, looked up) Lactotransferrin: APRKNVRWCTISQPEWFKCRRWQWRMKKLGAPSITCVRRAFALECIRAIAEKKADAVTLDGGMVFEAGRDPYKLRPVAAEIYGTKESPQTHYYAVAVVKKGSNFQLDQLQGRKSCHTGLGRSAGWIIPMGILRPYLSWTESLEPLQGAVAKFFSASCVPCIDRQAYPNLCQLCKGEGENQCACSSREPYFGYSGAFKCLQDGAGDVAFVKETTVFENLPEKADRDQYELLCLNNSRAPVDAFKECHLAQVPSHAVVARSVDGKEDLIWKLLSKAQEKFGKNKSRSFQLFGSPPGQRDLLFKDSALGFLRIPSKVDSALYLGSRYLTTLKNLRETAEEVKARYTRVVWCAVGPEEQKKCQQWSQQSGQNVTCATASTTDDCIVLVLKGEADALNLDGGYIYTAGKCGLVPVLAENRKSSKHSSLDCVLRPTEGYLAVAVVKKANEGLTWNSLKDKKSCHTAVDRTAGWNIPMGLIVNQTGSCAFDEFFSQSCAPGADPKSRLCALCAGDDQGLDKCVPNSKEKYYGYTGAFRCLAEDVGDVAFVKNDTVWENTNGESTADWAKNLNREDFRLLCLDGTRKPVTEAQSCHLAVAPNHAVVSRSDRAAHVKQVLLHQQALFGKNGKNCPDKFCLFKSETKNLLFNDNTECLAKLGGRPTYEEYLGTEYVTAIANLKKCSTSPLLEACAFLTR",does not affect,induces proliferation,mitogenic to chondrocytes,activates the p42/44 MAP kinase signaling pathway,capable of inducing osteoblast differentiation,significantly increase,strongly inhibits osteoclastogenesis,substantially less marked,inhibits apoptosis,has been found to bind,has been found to bind,is endocytosed,dose-dependent and substantial increases,dose-dependent and substantial increases,"stimulates proliferation of cultured osteoblastic cells of rat, mouse, and human origin potently and in a dose-dependent manner",,,
"RAP: the LRP-1/2-specific inhibitor, receptor-associated protein (RAP) (protein, UniProt P30533 35-357, looked up) Alpha-2-macroglobulin …: YSREKNQPKPSPKRESGEEFRMEKLNQLWEKAQRLHLPPVRLAELHADLKIQERDELAWKKLKLDGLDEDGEKEARLIRNLNVILAKYGLDGKKDARQVTSNSLSGTQEDGLDDPRLEKLWHKAKTSGKFSGEELDKLWREFLHHKEKVHEYNVLLETLSRTEEIHENVISPSDLSDIKGSVLHSRHTELKEKLRSINQGLDRLRRVSHQGYSTEAEFEEPRVIDLWDLAQSANLTDKELEAFREELKHFEAKIEKHNHYQKQLEIAHEKLRHAESVGDGERVSRSREKHALLEGRTKELGYTVKKHLQDLSGRISRARHNEL",,,,,,,,,,,,,,,,blocked,abrogates this process,blocked
